The target of the test is HeV G envelope glycoprotein (on effector cells expressing HeV F and G, or on infectious HeV) (Hendra virus) (UniProt O89343). Nature of the test: cell-based or functional assay.
Chain of HeV G envelope glycoprotein (on effector cells expressing HeV F and G, or on infectious HeV) (Hendra virus) (O89343 whole entry): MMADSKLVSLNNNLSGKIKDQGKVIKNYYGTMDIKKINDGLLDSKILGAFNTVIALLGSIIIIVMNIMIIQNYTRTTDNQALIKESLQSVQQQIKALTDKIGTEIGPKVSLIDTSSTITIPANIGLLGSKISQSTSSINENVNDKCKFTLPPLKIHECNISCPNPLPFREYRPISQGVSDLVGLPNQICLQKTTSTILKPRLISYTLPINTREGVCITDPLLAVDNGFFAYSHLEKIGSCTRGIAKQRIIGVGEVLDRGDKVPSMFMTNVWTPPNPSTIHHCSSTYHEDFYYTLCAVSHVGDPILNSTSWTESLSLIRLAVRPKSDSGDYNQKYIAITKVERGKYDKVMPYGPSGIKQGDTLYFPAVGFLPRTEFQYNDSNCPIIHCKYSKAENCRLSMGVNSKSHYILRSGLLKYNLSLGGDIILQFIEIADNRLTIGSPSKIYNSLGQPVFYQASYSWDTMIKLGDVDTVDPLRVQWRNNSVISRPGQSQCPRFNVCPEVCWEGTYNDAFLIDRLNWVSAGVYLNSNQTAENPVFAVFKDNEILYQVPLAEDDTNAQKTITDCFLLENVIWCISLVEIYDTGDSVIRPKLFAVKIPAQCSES

In turn, Fab X5 came in with a syncytia per complete photograph view, control antibody (17 without antibody) (syncytia per view) of 20.

These data come from patent US20090214428A1.
